{"source": "paper PMC12012533", "about": "“Structural basis for immune cell binding of Fusobacterium nucleatum via the trimeric autotransporter adhesin CbpF” (Proceedings of the National Academy of Sciences of the …, 2025)", "binders": {"B1": {"name": "CEACAM binding protein of Fusobacterium (CbpF) from F. nucleatum ATCC25586, wild type, detergent-solubilised (natural protein)", "chain": "SAAPVIKAGTATDSTEAGVDNVANGVKSSAFGYDNKAIEKESSAFGTGNRATGEFSSAFGFHNIASKIHSSAFGSNNAADGVNSSAFGFKNTVSGFNSSAFGSQYQVTGNFSGAFGMGEFNGQYQYKNEGNNSYMIGNKNKIASGSDDNFILGNNVHIGGGINNSVALGNNSTVSASNTVSVGSSTLKRKIVNVGDGAISANSSDAVTGRQLYSGNGIDTAAWQNKLNVTRKNDYKDANDIDVNKWKAKLGVGSGGGGGAPVDAYTKSEADNKFANKTDLNDYTKKDDYKDANGIDVDKWKAKLGTGAGTADIENLRNEVNEKIDDVKDEVRTVGSLSAALAGLHPMQYDPKAPVQVMAALGHYRDKQSVAVGASYYFNDRFMMSTGIALSGEKRTKTMANVGFTLKLGKGSGVTYDETPQYVVQNEVKRLTVENQELKERVRNLEEKLNMLLKNK", "notes": "Cloned in pASK-IBA2C behind an N-terminal E. coli OmpA signal peptide; Homotrimer; also called CbpF WT; CbpF wt; source: E. coli BL21 C43, extracted from membranes with lauroylsarcosine, purified (StrepTactin, SEC)"}, "B2": {"name": "CEACAM binding protein of Fusobacterium (CbpF), F. nucleatum ATCC25586, wild type (natural protein)", "chain": "SAAPVIKAGTATDSTEAGVDNVANGVKSSAFGYDNKAIEKESSAFGTGNRATGEFSSAFGFHNIASKIHSSAFGSNNAADGVNSSAFGFKNTVSGFNSSAFGSQYQVTGNFSGAFGMGEFNGQYQYKNEGNNSYMIGNKNKIASGSDDNFILGNNVHIGGGINNSVALGNNSTVSASNTVSVGSSTLKRKIVNVGDGAISANSSDAVTGRQLYSGNGIDTAAWQNKLNVTRKNDYKDANDIDVNKWKAKLGVGSGGGGGAPVDAYTKSEADNKFANKTDLNDYTKKDDYKDANGIDVDKWKAKLGTGAGTADIENLRNEVNEKIDDVKDEVRTVGSLSAALAGLHPMQYDPKAPVQVMAALGHYRDKQSVAVGASYYFNDRFMMSTGIALSGEKRTKTMANVGFTLKLGKGSGVTYDETPQYVVQNEVKRLTVENQELKERVRNLEEKLNMLLKNK", "modifications": "AlexaFluor 647 NHS-ester conjugate (cell binding and competition assays only)", "notes": "CbpF (FN1499) of Fusobacterium nucleatum ATCC25586, codon-optimized gene; mature protein after signal peptide cleavage, residues S24-K479; numbers count on the precursor with its own signal peptide; Cloned in frame with an N-terminal E. coli OmpA signal peptide (export signal; In detergent for SPR and the SEC test, in DMPC/MSP1D1 nanodiscs for cryo-EM and the cell assays; also called CbpF wt; …)"}, "B3": {"name": "CEACAM1 extracellular domain (residues 35–428), C-terminal hexahistidine tag (domain or fragment, human, UniProt P13688 35-428, looked up)", "chain": "QLTTESMPFNVAEGKEVLLLVHNLPQQLFGYSWYKGERVDGNRQIVGYAIGTQQATPGPANSGRETIYPNASLLIQNVTQNDTGFYTLQVIKSDLVNEEATGQFHVYPELPKPSISSNNSNPVEDKDAVAFTCEPETQDTTYLWWINNQSLPVSPRLQLSNGNRTLTLLSVTRNDTGPYECEIQNPVSANRSDPVTLNVTYGPDTPTISPSDTYYRPGANLSLSCYAASNPPAQYSWLINGTFQQSTQELFIPNITVNNSGSYTCHANNSVTGCNRTTVKTIIVTELSPVVAKPQIKASKTTVTGDKDSVNLTCSTNDTGISIRWFFKNQSLPSSERMKLSQGNTTLSINPVKREDAGTYWCEVFNPISKNQSDPIMLNVNYNALPQENGLSPG", "modifications": "glycosylated (N-acetylglucosamines modelled on the IgV-like and IgC2-like A1 domains)", "notes": "human carcinoembryonic antigen-related cell adhesion molecule 1 (CEACAM1), extracellular domain, residues 35-428 of UniProt P13688; also called CEACAM1/ECD; CEACAM1-ECD; source: bought: ACRO Biosystems (Cat. No. CE1-H5220), produced in HEK293 cells; not shown: His6, C-terminal, kept"}}, "key": {"[1]": {"molecular_target": "the molecule itself", "assay": "SDS-PAGE (SDS- and heat-resistant oligomer); elution fractions of membrane-extracted CbpF from StrepTactin resin; monomer at 50 kDa, trimer at 150 kDa"}, "[2]": {"molecular_target": "B3", "assay": "cryo-EM structure; 4.6 µM nanodisc-embedded CbpF (trimer) incubated with 14 µM CEACAM1/ECD for 60 min at 23 °C, excess CEACAM1 removed by SEC; single particle analysis, C3 symmetry", "details": "both partners purified"}, "[3]": {"molecular_target": "the molecule itself", "assay": "SDS-PAGE (SDS- and heat-resistant oligomer); purified CbpF, in detergent and after reconstitution in DMPC/MSP1D1 nanodiscs; band above 150 kDa"}, "[4]": {"molecular_target": "T1, CEACAM1-eGFP fusion protein on transfected HEK293T cells (human, UniProt P13688 35-526)", "T1 construct": "human CEACAM1 expressed from pcDNA3.1 as a GFP fusion; also called GFP-tagged CEACAM1; CEACAM1-GFP; source: HEK293T, transfected (pcDNA3.1, CMV promotor), on cells", "T1 sequence (looked up)": "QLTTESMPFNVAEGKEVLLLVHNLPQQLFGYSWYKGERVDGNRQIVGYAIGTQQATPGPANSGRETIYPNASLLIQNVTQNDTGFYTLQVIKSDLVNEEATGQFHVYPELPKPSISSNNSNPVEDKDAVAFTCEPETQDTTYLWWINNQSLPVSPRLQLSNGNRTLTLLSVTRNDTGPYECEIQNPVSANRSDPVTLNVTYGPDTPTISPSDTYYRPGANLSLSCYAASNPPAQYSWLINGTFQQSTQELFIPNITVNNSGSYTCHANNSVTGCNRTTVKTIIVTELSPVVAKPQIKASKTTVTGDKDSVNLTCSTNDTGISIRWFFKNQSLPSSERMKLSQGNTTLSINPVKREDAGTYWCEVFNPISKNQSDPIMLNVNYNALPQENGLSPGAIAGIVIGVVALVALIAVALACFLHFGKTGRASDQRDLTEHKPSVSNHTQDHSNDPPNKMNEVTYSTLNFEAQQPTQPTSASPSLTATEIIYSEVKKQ", "assay": "confocal fluorescence microscopy of labelled protein on cells; 1 µM AlexaFluor 647-labelled CbpF nanodiscs on HEK293T cells transfected with CEACAM1-GFP, 2 h at 37 °C, compared with empty nanodiscs; integrated fluorescence colocalizing with GFP or with the membrane stain", "details": "one partner purified"}, "[5]": {"molecular_target": "B2", "assay": "SPR; same sensorgrams as a4, steady-state signals of the binding curves evaluated", "details": "both partners purified"}, "[6]": {"molecular_target": "B2", "assay": "SPR; Biacore T200; CEACAM1-ECD-His6 captured on an anti-His antibody on a CM5 chip (~35 RU); CbpF injected, 11.5 to 1,480 nM (WT) or 15.6 to 1,000 nM (WT and variants); 25 mM MOPS-NaOH, 150 mM NaCl, 1 % P8POE, pH 7.0, 25 °C; global fit with a 1:1 Langmuir or a heterogeneous ligand model", "details": "both partners purified"}, "[7]": {"molecular_target": "B2", "assay": "competition of cell binding (confocal fluorescence microscopy); labelled CbpF nanodiscs preincubated with 1 or 2 µM purified CEACAM1-ECD for 30 min at 25 °C before incubation with cells", "details": "both partners purified"}, "[8]": {"molecular_target": "B1", "assay": "SPR; CEACAM1-ECD-His6 captured (about 35 RU) on anti-His antibody on a CM5 chip, Biacore T200; CbpF injected at 11.5-1480 nM (WT) or 15.6-1000 nM (WT and variants); 25 mM MOPS-NaOH, 150 mM NaCl, 1 % P8POE, pH 7.0, 25 °C; 240 s association, 600 s dissociation; 1:1 Langmuir global fit", "details": "both partners purified"}}, "note": "Several values for one entry are separate records, joined by “and”; a condition that tells them apart may be missing. Identical values can stand only once."}
{"binder": "B1", "values": [{"measurement": "stoichiometry N", "setting": "[1]", "result": 3}]}
{"binder": "B2", "values": [{"measurement": "stoichiometry N", "setting": "[2]", "result": 1, "unit": "CEACAM1 per CbpF protomer"}, {"measurement": "stoichiometry N", "setting": "[3]", "result": 3}, {"measurement": "fold increase of the mean fluorescence signal over empty nanodiscs (colocalizing with cells)", "setting": "[4]", "result": 9.3, "unit": "fold"}, {"measurement": "fold increase of the mean fluorescence signal over nanodiscs without CbpF (colocalizing with CEACAM1-GFP)", "setting": "[4]", "result": "~460", "unit": "fold"}]}
{"binder": "B3", "values": [{"measurement": "Kd", "setting": "[5]", "result": "75 ± 14", "unit": "nM"}, {"measurement": "Kd", "setting": "[6]", "result": 6.2, "unit": "nM"}, {"measurement": "koff", "setting": "[6]", "result": 0.00051, "unit": "s⁻¹"}, {"measurement": "kon", "setting": "[6]", "result": 81300, "unit": "M⁻¹ s⁻¹"}, {"measurement": "fold decrease of the CbpF signal on cells after preincubation", "setting": "[7]", "result": "~11", "unit": "fold"}]}
{"binder": "CEACAM1 extracellular domain (residues 35-428), C-terminal hexahistidine tag (domain or fragment, human, UniProt P13688 35-428, looked up, glycosylated, carcinoembryonic antigen-related cell adhesion molecule 1 (CEACAM1), human, extracellular domain, residues 35-428; also called CEACAM1-ECD; CEACAM1/ECD; source: bought: ACRO Biosystems, Cat. No. CE1-H5220, produced in HEK293 cells; not shown: His6, C-terminal, kept) QLTTESMPFNVAEGKEVLLLVHNLPQQLFGYSWYKGERVDGNRQIVGYAIGTQQATPGPANSGRETIYPNASLLIQNVTQNDTGFYTLQVIKSDLVNEEATGQFHVYPELPKPSISSNNSNPVEDKDAVAFTCEPETQDTTYLWWINNQSLPVSPRLQLSNGNRTLTLLSVTRNDTGPYECEIQNPVSANRSDPVTLNVTYGPDTPTISPSDTYYRPGANLSLSCYAASNPPAQYSWLINGTFQQSTQELFIPNITVNNSGSYTCHANNSVTGCNRTTVKTIIVTELSPVVAKPQIKASKTTVTGDKDSVNLTCSTNDTGISIRWFFKNQSLPSSERMKLSQGNTTLSINPVKREDAGTYWCEVFNPISKNQSDPIMLNVNYNALPQENGLSPG", "values": [{"measurement": "Kd", "setting": "[8]", "result": "6.16 nM and 6.29 nM"}, {"measurement": "koff", "setting": "[8]", "result": "0.000501 s⁻¹ and 0.000844 s⁻¹"}, {"measurement": "kon", "setting": "[8]", "result": 134000, "unit": "M⁻¹ s⁻¹"}]}
